Reference: patent US20120202890A1, “POLYMER-CARBOHYDRATE-LIPID CONJUGATES” (priority 2011, published 2012)
Ends that are not written are not given here.

Key:
[1] = Stability of peptide solution by HPLC assay; assay type: physicochemical
Protocol: Stability experiment was carried out by HPLC assay and a custom synthesized thermolabile peptide with the following sequence was used as the model compound: […] The peptide was added to selected media and sonicated for 10 minutes. The sample solutions were filtered through passed through 0.22-μm pore-size filter to remove dust particles before the HPLC assay. A Simadzu 10avp chromatography system with a Kinetex C18 (2.6 μm, 100×4.6 mm i.d.) column (Phenomenex, Torrance, Calif.) were used. The solutions were kept at 25° C. in the Autosampler during the assay and the mobile phase consisted of 0.1% of trifluoroacetic acid and acetonitrile mixture (v/v, 80/20) with a flow rate of 1.0 mL/min. The peptide peak was monitored at 210 nm and quantitated using external standard sets of the peptide.
The plots were the % recovery vs. time.

[2] = Physical state of Propofol formulations with PEG-carbohydrate-lipid (solution, suspension or emulsion); assay type: physicochemical
Protocol: A propofol solution suitable for intravenous delivery is prepared as follows. 5% (w/v) of OAPDL-PEG in Saline was added to a vessel equipped with a mixer propeller and 2% (w/v) of Propofol was added with constant mixing at ambient room temperature. Mixing was continued until the drug was visually dispersed. Equal volume of Saline was added to the vessel with adequate mixing. Mixing continued for another 30 minutes or until a homogenous solution was achieved. A sample formulation is described in Table 15.
In Example 16, less concentrated or less purified PEG-sugar-lipid will create a suspension instead of an aqueous solution. For instance, the final concentration of the PEG-carbohydrate-lipid is less than 1.5% (w/v), it will form a suspension. Similarly when the oligomer purity is 80% or less, regardless the concentration of the PEG-carbohydrate-lipid, an emulsified solution will be observed instead of a transparent solution.
Propofol as the active agent was formulated with various polymer-lipid-carbohydrate conjugates described in the present invention. At a lower of the polymer-lipid-carbohydrate conjugate concentration, i.e., OAPDL-11 (<1.5%), the formulation is a microemulsion and at a higher OAPDL-11 concentration (≧2.2%), it is a true solution.
A solution is defined as a homogenous mixture of substances with variable composition. […]

[3] = Body weight change as evidence of renal toxicity of cisplatin, intravenous dosing; assay type: in vivo, mice (B6D2F1); details: animal experiments, mice
Protocol: Groups of four each of mixed gender mice (B6D2F1), […] and weights of 22 to 30 grams) were studied in duplicate. Each mouse was administrated cisplatin intravenously at a dose of 10 mg/kg (Table 16) and Intraperitoneally at a dose of 15 mg/kg (Table 17). The changes in body weights observed can be used as a direct evident in the renal toxicity effects.

FPKLSHGCNKHSRKHPYMTF [peptide, custom synthesized thermolabile peptide used as the model compound]
peptide degradation ([1]; in a 50 mM of phosphate buffer, in 24 hours): degraded significantly
peptide still remaining ([1]; in a 2% of PEG-carbohydrate-lipid, after 24 hours): more than 97%

oleoyi-N-(3-aminopropyl)propane-1,3-diamine-Undecaethylene glycol methyl ether Lactobionate [OAPDL-11]
physical state of Propofol formulation ([2]; higher OAPDL-11 concentration (≧2.2%)): true solution
physical state of Propofol formulation ([2]; lower OAPDL-11 concentration (<1.5%)): microemulsion
intravenous hydration effect for reducing renal toxicity of cisplatin [3]: better than free sugars
